Results as given in patent US20230310573A1 (Janssen / Centocor, published 2023).

Columns and labels:
[1] = target: T1, Recombinant soluble RSV F stabilized in the pre-fusion conformation (soluble, processed, stabilized RSV F … (respiratory syncytial virus (RSV), UniProt P03420 26-513)); assay: sandwich ELISA: antibody coated, preF titrated, CR9506-HRP detection; preF + compound III, trimer:compound 1:50
T1 construct: also called RSV pre-fusion F protein; RSV prefusion F

[2] = target: T1, Recombinant soluble RSV F stabilized in …; assay: sandwich ELISA: antibody coated, preF titrated, CR9506-HRP detection; preF + DMSO
[3] = target: T1, Recombinant soluble RSV F stabilized in …; assay: sandwich ELISA: antibody coated, preF titrated, CR9506-HRP detection; preF alone
[4] = target: T1, Recombinant soluble RSV F stabilized in …; assay: sandwich ELISA: antibody coated, preF titrated, CR9506-HRP detection; preF + compound VII, trimer:compound 1:3
[5] = target: T1, Recombinant soluble RSV F stabilized in …; assay: sandwich ELISA: antibody coated, preF titrated, CR9506-HRP detection; preF + compound III, trimer:compound 1:3
[6] = target: T1, Recombinant soluble RSV F stabilized in …; assay: sandwich ELISA: antibody coated, preF titrated, CR9506-HRP detection; preF + compound VII, trimer:compound 1:50
[7] = target: T1, Recombinant soluble RSV F stabilized in …; assay: sandwich ELISA: antibody coated, preF titrated, CR9506-HRP detection; preF + compound III, trimer:compound 1:10
[8] = target: T1, Recombinant soluble RSV F stabilized in …; assay: sandwich ELISA: antibody coated, preF titrated, CR9506-HRP detection; preF + compound VII, trimer:compound 1:10

B1: CR9506 (antibody, human IgG1, kappa, V domains shown)
VH: EVQLVQSGAEVKKPGSSVKVSCKASGGTFSRSLITWVRQAPGQGLEWMGEISLVFGSAKNAQKFQGRVTITADESTSTAHMEMISLKHEDTAVYYCAAHQYGSGTHNNFWDESELRFDLWGQGTLVTVSS
VL: DIVMTQSPSSLSASVGDRVTIACRASQSIGTYLNWYQQKPGKAPKLLIYAASSLQSGVPSRFSGSGSGTHFTLAISSLQAEDFATYSCQQSYTIPYTFGQGTKLEIKR
notes: An HRP-labelled CR9506 was also the detection antibody in the ELISA; also called CR9506 (pan)
**Q.** How did the EC50 [1] turn out when B1 was run?
**A.** 0.31 nM

**Q.** And the EC50 [2]?
**A.** 0.29 nM

**Q.** And the IC50 [3]?
**A.** 0.28 nM

**Q.** And the EC50 [4]?
**A.** 0.32 nM

**Q.** What about the “EC50 (half-maximal binding concentration)” value [5] of the same binder?
**A.** 0.3 nM

**Q.** What about the “EC50 (half-maximal binding concentration)” value [6] of the same binder?
**A.** 0.31 nM

**Q.** And the “EC50 (half-maximal binding concentration)” value [7]?
**A.** 0.29 nM

**Q.** What about the EC50 [8] of the same binder?
**A.** 0.29 nM
